Experimental data reported in patent US20050181450A1, “Novel inositol 1,4,5-trisphosphate (IP3) receptor-binding protein and an IP3 indicator” (priority 2002, published 2005).

How the values were obtained:
[1] = target: T1, GST-EL (IP3R) (Mus musculus, UniProt P11881, N1264K); assay: [3H]IP3 binding to GST-EL
T1 construct: construct a GST-IP3R1 (1-2217) vector (termed GST-EL); made in house; host or cells: GST-EL: Sf9 cells; His-IRBIT: Sf9 cells or E. coli
Method: (A) 0.2 μg of GST-EL was incubated with 0.1, 1, or 10 μg of purified His-tagged IRBIT expressed in Sf9 cells or E. coli in a solution containing 50 mM Tris-HCl (pH 8.0), 1 mM EDTA, and 1 mM 2-mercaptoethanol, for 30 min on ice. Then 8.7 nM [^3H]IP3 (PerkinElmer Life Sciences) was added to the samples and incubated for 10 min on ice (total volume was 50 μl). The samples were mixed with 2 μl of 50 mg/ml γ-globulin and 50 μl of 30% PEG6000, 50 mM Tris-HCl (pH 8.0), and incubated for 5 min on ice. Non-specific binding was measured in the presence of 10 μM cold IP3. After centrifugation at 20,000×g for 5 min, the precipitate was dissolved in SOLVABLE™ (Packard) and the radioactivity was measured with a liquid scintillation counter (Beckman Coulter). Results are shown as the mean±S.D. from three independent experiments. (B) Purified His-IRBIT expressed in Sf9 cells was incubated with alkaline phosphatase for 30 min at 37° C. prior to the IP3 binding assay described as in (A). (C and D) Scatchard analysis. 0.1 μg of GST-EL was incubated with or without 1 μg of purified His-tagged IRBIT expressed in Sf9 cells as described in (A). Then 2.17 nM [^3H]IP3 and 2-500 nM cold IP3 were added to the samples and incubated for 10 min on ice (total volume was 100 μl). Non-specific binding was measured in the presence of 10 μM cold IP3. [^3H]IP3 binding to GST-EL was measured as described in (A).
The effect of IRBIT on binding of IP3 to IP3R was examined. GST-EL (0.2 μg) was incubated with 0.1, 1, or 10 μg of purified His-tagged IRBIT expressed in Sf9 cells or E. coli in a solution containing 50 mM Tris-HCl (pH 8.0), 1 mM EDTA, and 1 mM 2-mercaptoethanol, for 30 min on ice. Then 8.7 nM [^3H]IP3 (PerkinElmer Life Sciences) was added to the samples and incubated for 10 min on ice (total volume was 50 μl). The samples were mixed with 2 μl of 50 mg/ml γ-globulin and 50 μl of 30% PEG6000, 50 mM Tris-HCl (pH 8.0), and incubated for 5 min on ice. Non-specific binding was measured in the presence of 10 μM cold IP3. After centrifugation at 20,000×g for 5 min, the precipitate was dissolved in SOLVABLE™ (Packard) and the radioactivity was measured with a liquid scintillation counter (Beckman Coulter). […] 0.1 μg of GST-EL was incubated with or without 1 μg of purified His-tagged IRBIT expressed in Sf9 cells as described in (A). Then 2.17 nM [^3H]IP3 and 2-500 nM cold IP3 were added to the samples and incubated for 10 min on ice (total volume was 100 μl). Non-specific binding was measured in the presence of 10 μM cold IP3. [^3H]IP3 binding to GST-EL was measured as described in (A). […] Bmax was not changed.

[2] = S-adenosylhomocysteine hydrolase activity in the hydrolytic direction; assay type: biochemical; settings: recombinant protein expressed in Escherichia coli; hydrolysis direction
Method: The S-adenosylhomocysteine hydrolase activity in the hydrolytic direction of recombinant IRBIT-His (open circle), GST-IRBIT (triangle), GST (square), and S-adenosylhomocysteine hydrolase (closed circle) were measured according to the known method (43). Results are shown as the mean±standard deviation from three independent experimental results.
To assay S-adenosylhomocysteine hydrolase activity in the hydrolytic direction, the color developed by the reaction between the product (Homocysteine) and 5,5′-dithiobis (2-nitrobenzoic acid) (Sigma) was measured spectroscopically using the purified IRBIT-His (3.0 μg), GST-IRBIT (4.3 μg), GST (1.3 μg) and rabbit S-adenosylhomocysteine hydrolase (Sigma) (2.4 μg), according to the known method (43). Absorbance at 412 nm was measured 0, 5, 20 and 60 minutes later using a DU 640 spectrophotometer (Beckman). Results are shown as the mean±standard deviation from three independent experiments (FIG. 2).

[3] = 1 μg His-tagged IRBIT (Sf9), 0.1 μg GST-EL

T1 sequence (P11881 1-2217 N1264K): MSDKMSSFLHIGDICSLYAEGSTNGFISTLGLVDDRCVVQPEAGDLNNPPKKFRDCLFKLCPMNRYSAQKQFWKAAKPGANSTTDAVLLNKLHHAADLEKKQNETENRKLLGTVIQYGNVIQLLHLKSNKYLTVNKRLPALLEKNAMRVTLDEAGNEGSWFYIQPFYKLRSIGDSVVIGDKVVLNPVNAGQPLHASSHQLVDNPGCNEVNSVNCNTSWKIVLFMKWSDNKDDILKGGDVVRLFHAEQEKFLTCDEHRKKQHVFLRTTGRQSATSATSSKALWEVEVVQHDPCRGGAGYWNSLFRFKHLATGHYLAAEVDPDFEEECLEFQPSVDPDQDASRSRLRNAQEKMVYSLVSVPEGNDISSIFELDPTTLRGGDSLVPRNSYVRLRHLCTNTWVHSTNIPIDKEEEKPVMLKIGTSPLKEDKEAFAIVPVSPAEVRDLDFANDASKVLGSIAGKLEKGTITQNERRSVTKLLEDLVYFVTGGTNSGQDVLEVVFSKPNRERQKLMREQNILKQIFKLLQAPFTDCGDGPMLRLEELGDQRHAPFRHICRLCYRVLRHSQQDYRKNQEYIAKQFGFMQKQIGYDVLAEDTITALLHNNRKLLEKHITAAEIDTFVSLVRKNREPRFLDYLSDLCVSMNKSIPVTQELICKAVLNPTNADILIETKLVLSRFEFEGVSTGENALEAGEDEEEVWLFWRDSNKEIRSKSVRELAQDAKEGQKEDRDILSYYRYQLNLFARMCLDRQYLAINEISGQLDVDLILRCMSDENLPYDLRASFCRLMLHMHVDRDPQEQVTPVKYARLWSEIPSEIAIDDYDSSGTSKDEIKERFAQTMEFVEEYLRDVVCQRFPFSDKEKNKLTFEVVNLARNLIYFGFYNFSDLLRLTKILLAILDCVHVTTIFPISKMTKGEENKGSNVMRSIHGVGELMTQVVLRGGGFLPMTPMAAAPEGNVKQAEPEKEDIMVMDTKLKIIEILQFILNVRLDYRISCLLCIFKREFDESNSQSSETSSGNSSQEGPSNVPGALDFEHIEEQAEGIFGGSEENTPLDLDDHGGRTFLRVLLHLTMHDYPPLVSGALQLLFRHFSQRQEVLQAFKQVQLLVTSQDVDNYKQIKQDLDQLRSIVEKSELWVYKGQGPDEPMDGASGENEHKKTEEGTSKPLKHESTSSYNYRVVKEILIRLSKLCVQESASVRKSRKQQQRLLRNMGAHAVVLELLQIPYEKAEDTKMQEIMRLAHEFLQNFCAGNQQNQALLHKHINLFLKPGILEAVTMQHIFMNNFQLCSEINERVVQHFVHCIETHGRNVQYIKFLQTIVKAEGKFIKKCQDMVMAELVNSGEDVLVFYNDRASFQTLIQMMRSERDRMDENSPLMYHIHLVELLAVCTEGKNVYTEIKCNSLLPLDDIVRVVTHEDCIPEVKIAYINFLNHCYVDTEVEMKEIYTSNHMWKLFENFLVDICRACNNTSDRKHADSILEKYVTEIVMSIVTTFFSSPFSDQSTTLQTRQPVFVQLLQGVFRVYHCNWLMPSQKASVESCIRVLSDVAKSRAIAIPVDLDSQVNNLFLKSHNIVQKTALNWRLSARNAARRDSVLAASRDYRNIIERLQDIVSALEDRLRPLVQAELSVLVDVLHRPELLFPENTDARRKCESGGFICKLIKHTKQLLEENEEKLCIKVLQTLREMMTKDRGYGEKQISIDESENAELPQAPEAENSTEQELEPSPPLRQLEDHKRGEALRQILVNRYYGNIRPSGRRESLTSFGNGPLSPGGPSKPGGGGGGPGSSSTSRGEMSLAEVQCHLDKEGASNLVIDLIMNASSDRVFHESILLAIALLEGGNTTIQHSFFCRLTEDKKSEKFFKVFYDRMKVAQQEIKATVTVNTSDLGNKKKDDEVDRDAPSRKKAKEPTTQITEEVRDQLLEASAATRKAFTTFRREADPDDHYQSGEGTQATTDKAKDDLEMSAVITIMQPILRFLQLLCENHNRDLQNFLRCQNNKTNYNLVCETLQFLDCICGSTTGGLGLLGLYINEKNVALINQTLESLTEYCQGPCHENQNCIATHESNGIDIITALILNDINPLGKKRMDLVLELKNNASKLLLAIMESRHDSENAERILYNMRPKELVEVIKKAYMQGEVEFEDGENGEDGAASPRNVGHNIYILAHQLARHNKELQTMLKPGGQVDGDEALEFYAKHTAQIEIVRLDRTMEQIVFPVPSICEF

B1: His-IRBIT: purified His-tagged IRBIT expressed in Sf9 cells (protein)
chain: MSMPDAMPLPGVGEELKQAKEIEDAEKYSFMATVTKAPKKQIQFADDMQEFTKFPTKTGRRSLSRSISQSSTDSYSSAASYTDSSDDEVSPREKQQTNSKGSSNFCVKNIKQAEFGRREIEIAEQDMSALISLRKRAQGEKPLAGAKIVGCTHITAQTAVLIETLCALGAQCRWSACNIYSTQNEVAAALAEAGVAVFAWKGESEDDFWWCIDRCVNMDGWQANMILDDGGDLTHWVYKKYPNVFKKIRGIVEESVTGVHRLYQLSKAGKLCVPAMNVNDSVTKQKFDNLYCCRESILDGLKRTTDVMFGGKQVVVCGYGEVGKGCCAALKALGAIVYITEIDPICALQACMDGFRVVKLNEVIRQVDVVITCTGNKNVVTREHLDRMKNSCIVCNMGHSNTEIDVTSLRTPELTWERVRSQVDHVIWPDGKRVVLLAEGRLLNLSCSTVPTFVLSITATTQALALIELYNAPEGRYKQDVYLLPKKMDEYVASLHLPSFDAHLTELTDDQAKYLGLNKNGPFKPNYYRY
modifications: left off: small tags and cut ends
notes: purified His-tagged IRBIT expressed in Sf9 cells
[1]; [3]
  Bmax (Scatchard analysis): not changed
  affinity of GST-EL to IP3 (Scatchard analysis): decreased the affinity
[1]; 0.1, 1 or 10 μg His-tagged IRBIT expressed in Sf9, 8.7 nM [3H]IP3
  effect on IP3 binding of GST-EL: dose-dependently suppressed

B2: GST-IRBIT: N-terminally GST-tagged full-length IRBIT expressed in Escherichia coli (protein, UniProt O43865 1-530, looked up)
chain: MSMPDAMPLPGVGEELKQAKEIEDAEKYSFMATVTKAPKKQIQFADDMQEFTKFPTKTGRRSLSRSISQSSTDSYSSAASYTDSSDDEVSPREKQQTNSKGSSNFCVKNIKQAEFGRREIEIAEQDMSALISLRKRAQGEKPLAGAKIVGCTHITAQTAVLIETLCALGAQCRWSACNIYSTQNEVAAALAEAGVAVFAWKGESEDDFWWCIDRCVNMDGWQANMILDDGGDLTHWVYKKYPNVFKKIRGIVEESVTGVHRLYQLSKAGKLCVPAMNVNDSVTKQKFDNLYCCRESILDGLKRTTDVMFGGKQVVVCGYGEVGKGCCAALKALGAIVYITEIDPICALQACMDGFRVVKLNEVIRQVDVVITCTGNKNVVTREHLDRMKNSCIVCNMGHSNTEIDVTSLRTPELTWERVRSQVDHVIWPDGKRVVLLAEGRLLNLSCSTVPTFVLSITATTQALALIELYNAPEGRYKQDVYLLPKKMDEYVASLHLPSFDAHLTELTDDQAKYLGLNKNGPFKPNYYRY
modifications: full-length N-terminal GST tag
notes: N-terminally GST-tagged full-length IRBIT expressed in Escherichia coli
[2]
  S-adenosylhomocysteine hydrolase activity: neither of the recombinant IRBITs had enzyme activity

B3: IRBIT-His: C-terminally His-tagged full-length IRBIT expressed in Escherichia coli (protein, UniProt O43865 1-530, looked up)
chain: MSMPDAMPLPGVGEELKQAKEIEDAEKYSFMATVTKAPKKQIQFADDMQEFTKFPTKTGRRSLSRSISQSSTDSYSSAASYTDSSDDEVSPREKQQTNSKGSSNFCVKNIKQAEFGRREIEIAEQDMSALISLRKRAQGEKPLAGAKIVGCTHITAQTAVLIETLCALGAQCRWSACNIYSTQNEVAAALAEAGVAVFAWKGESEDDFWWCIDRCVNMDGWQANMILDDGGDLTHWVYKKYPNVFKKIRGIVEESVTGVHRLYQLSKAGKLCVPAMNVNDSVTKQKFDNLYCCRESILDGLKRTTDVMFGGKQVVVCGYGEVGKGCCAALKALGAIVYITEIDPICALQACMDGFRVVKLNEVIRQVDVVITCTGNKNVVTREHLDRMKNSCIVCNMGHSNTEIDVTSLRTPELTWERVRSQVDHVIWPDGKRVVLLAEGRLLNLSCSTVPTFVLSITATTQALALIELYNAPEGRYKQDVYLLPKKMDEYVASLHLPSFDAHLTELTDDQAKYLGLNKNGPFKPNYYRY
modifications: full-length C-terminal His tag
notes: C-terminally His-tagged full-length IRBIT expressed in Escherichia coli
[2]
  S-adenosylhomocysteine hydrolase activity: neither of the recombinant IRBITs had enzyme activity
